Substrate: Cc1cc(=O)oc2cc(NC(=O)[C@@H](CC(=O)O)NC(=O)CCC(=O)O)ccc12
Assay: AMC fluorescence, kinetic plate-reader assay, initial rates
Assay type: biochemical, Homo sapiens
Conditions: pH 8.0, 30 °C, Tris-HCl, 150 mM NaCl

B1: 6His-SUMO1-hLACTB (97–547) (hLACTB WT) (Homo sapiens) (protein)
chain: APPCSRCFARAIESSRDLLHRIKDEVGAPGIVVGVSVDGKEVWSEGLGYADVENRVPCKPETVMRIASISKSLTMVALAKLWEAGKLDLDIPVQHYVPEFPEKEYEGEKVSVTTRLLISHLSGIRHYEKDIKKVKEEKAYKALKMMKENVAFEQEKEGKSNEKNDFTKFKTEQENEAKCRNSKPGKKKNDFEQGELYLREKFENSIESLRLFKNDPLFFKPGSQFLYSTFGYTLLAAIVERASGCKYLDYMQKIFHDLDMLTTVQEENEPVIYNRARFYVYNKKKRLVNTPYVDNSYKWAGGGFLSTVGDLLKFGNAMLYGYQVGLFKNSNENLLPGYLKPETMVMMWTPVPNTEMSWDKEGKYAMAWGVVERKQTYGSCRKQRHYASHTGGAVGASSVLLVLPEELDTETINNKVPPRGIIVSIICNMQSVGLNSTALKIALEFDKDRSD
notes: residues 97-547 (putative catalytic domain), N-terminal 6His-SUMO1 fusion kept, expressed in Escherichia coli, Ni-NTA and size-exclusion purified
Protein B1 has a Km of 25.3 ± 2.7 µM and a kcat of 6.02 ± 0.12 s⁻¹.

— article PMC12148432, “Discovery and biochemical characterization of the D-aspartyl endopeptidase activity of the serine protease LACTB [drawing 1]” (The Journal of Biological Chemistry, 2025)
